Where no end group is shown, it is not given here.
Columns and labels:
Format in all cases: physicochemical
[1] = Particle size of self-assembled nanoparticles (TEM); conditions: for Particle Size: particles self-assembled from the conjugate, Table 1
Description: Lyophilized peptide-polymer conjugates were dissolved in phosphate buffer (pH=8) at a concentration of 10 mg/ml (˜1.5 mM). Upon sonication for 30 s, solutions were diluted to 1 mg/ml (0.15 mM) or 0.1 mg/ml in phosphate buffer (pH=8). 5 μl of the diluted peptide solution were applied to a discharged holey carbon-coated copper grid (Ted Pella Cu 400 mesh 01824) for 4 minutes before absorbing off excess solution using filter paper (Whatman filter paper 1). The sample on the grid was negatively stained with a 5 μl 2% (w/v) phosphotungstic acid (adjusted to pH=3.3 with 1 M NaOH) for 2 minutes. Excess stain solution was wicked off. After complete drying, grids were examined by TEM at 120 kV (Philips/FEI Tecnai 12).
Lyophilized peptide powder was dissolved at 1 mg/ml in 25 mM phosphate buffer at pH 7.4. 5 μl of peptide solution was dropped on a discharged holey carbon coated grid (Ted Pella 01824). After removing excess peptide solution, 5 μl of phosphotungstic acid (2 wt %, pH=3.3) solution was then applied for 2 minutes. Samples were dried in air and examined by a FEI Tecnai 12 transmission electron microscope at 120 kV.

[2] = Differential scanning calorimetry (DSC) of micelles; conditions: heating from 5° C. to 85° C.; solutions incubated at 20° C. for 16 hrs; FIG. 21A
Description: DSC was performed on a VP-MicroCal calorimeter (GE). ˜600 μl of sample and buffer were loaded into two parallel stainless steel cells that were sealed tightly under the pressure of ˜27 psi to prevent water evaporation during the heating cycle. The temperature was increased from 5° to 85° C. at a rate of 1° C./min, with a 15 min equilibration time at 5° C. DSC thermograms were obtained after concentration normalization and baseline correction using the Origin software provided by the MicroCal.

[3] = Circular dichroism (CD), peptide helicity; conditions: CD spectra, same conditions, FIG. 31
Description: Temperature dependent CD measurements were made on a Jasco J810 spectropolarimeter. CD spectra were collected from 260 to 190 nm at 0.2 nm intervals, a rate of a 100 nm/min, a response time of 4 s, and a bandwidth of 1 nm. Temperature melt curves were measured using ˜200 μM solutions. The ellipticity was monitored at 222 nm as the temperature increased from 5° to 95° C. in 5° C. increments at a rate of 1° C./min, with a 1 min equilibration time at each temperature before the measurement was taken. One hundred percent helicity was estimated using the formula [θ]222=40,000[…][1−(2.5/n)].

Conjugate 14: dC16 lipid, random coil control peptide SR (SEQ ID NO: 4), PEG2K (EGKAGEKAGAALKCGVQELEKGAEAGEGGW; also: dC16 lipid, place not given here, PEG2K, place not given here)
Particle Size [1]: 10-15 nm | DSC melting temperature / endothermic peak centre [2]: 42 °C | helical content [3]: less than 5%

Conjugate 8: dC16 lipid, heme-binding 4-helix peptide BB (SEQ ID NO: 2), PEG2K (GGGEIWKLHEEFLCKFEELLKLHEERLKKM; also: dC16 lipid, place not given here, PEG2K, place not given here)
particle/micelle diameter ([1]; TEM for conjugate 15): ~12 nm | Particle Size [1]: 10-15 nm

From patent US9044514B2, “Lipid-peptide-polymer conjugates and nanoparticles thereof” (priority 2010, dated 2015)
